Our source for the Kd values is PMC3689846.

Assay [1] concerns the target eOD-GT1 (HIV-1 strain HxB2). Description: SPR.
Assay [2] has as its target Core.BaL-GT1 (germline-targeting variant of core gp120) (HIV-1 strain BaL (from the name)). Description: SPR.

B1: NIH45-46 (mature) (antibody, V domains shown)
VH: QVRLSQSGGQMKKPGESMRLSCRASGYEFLNCPINWIRLAPGRRPEWMGWLKPRGGAVNYARKFQGRVTMTRDVYSDTAFLELRSLTSDDTAVYFCTRGKYCTARDYYNWDFEHWGRGAPVTVSS
VL: EIVLTQSPATLSLSPGETAIISCRTSQSGSLAWYQQRPGQAPRLVIYSGSTRAAGIPDRFSGSRWGADYNLSISNLESGDFGVYYCQQYEFFGQGTKVQVD
Take B1: in assay [1], the equilibrium dissociation constant (Kd) stood at 3 nM. This lies in the single-digit nanomolar range.

B2: 12A12 (mature) (antibody, V domains shown)
VH: SQHLVQSGTQVKKPGASVRISCQASGYSFTDYVLHWWRQAPGQGLEWMGWIKPVYGARNYARRFQGRINFDRDIYREIAFMDLSGLRSDDTALYFCARDGSGDDTSWHLDPWGQGTLVIVSA
VL: DIQMTQSPSSLSASVGDRVTITCQAGQGIGSSLQWYQQKPGKAPKLLVHGASNLHRGVPSRFSGSGFHTTFSLTISGLQRDDFATYFCAVLEFFGPGTKVEIK
B2 returned a dissociation constant (Kd) in assay [2] of 1 nM.
